“Also recorded” adds a separate entry of the source.
Key:
[1] = tested on: AtPRK^LRR proteins other than AtPRK6^LRR; assay: In vitro pull-down with other AtPRK^LRR proteins; assay type: binding, Arabidopsis; conditions: Ni-NTA, excess AtLURE1.2, on ice 30 min, washed five times; SDS-PAGE, Coomassie blue
Source text: (§1) The genes of AtPRK3 ^LRR (residues 1–241), AtPRK4 ^LRR (residues 1–277), AtPRK5 ^LRR (residues 1–279), AtPRK6 ^LRR (residues 1–262), MIK1 ^LRR (residues 1–633), MIK2 ^LRR (residues 1–707) were amplified from Arabidopsis cDNA library by PCR and cloned into pFastBac-1 vector with a C-terminal 6 × His-tag. Their identities were confirmed by sequencing. The mature form of AtLURE1.1 (residues 20–94), AtLURE1.2 (residues 20–90), AtLURE1.3 (residues 21–91), and AtLURE1.4 (residues 20–90) were cloned into pFastBac-1 vector, with a modified N-terminal hemolin signal peptide and 6 × His-SUMO tag. Point mutation constructs were generated by QuickChange Site-Directed Mutagenesis Kit (Strategene). All the proteins were expressed using the Bac-to-Bac baculovirus expression system (Invitrogen) in High Five cells at 22 °C. One liter of High Five cells (2.0 × 10^6 cells mL^−1) cultured in the medium from Expression Systems was infected with 25 ml recombinant baculovirus and the media was collected after 72 h of infection. Secreted LRR proteins were purified using Ni-NTA (Novagen) and size-exclusion chromatography (Hiload 200, GE Healthcare) in buffer containing 10 mM Bis-Tris pH 6.0 and 100 mM NaCl. […]
(§2) The purified His-tagged ectodomains of AtPRK proteins and MIK1, 2 were used to pull-down the AtLURE1.2 peptide. […] All the eluted samples were analyzed by SDS-PAGE and visualized by Coomassie blue staining. […]

MIK1^LRR [2] = assay: In vitro pull-down with MIK1^LRR; assay type: binding, Arabidopsis; conditions: Ni-NTA, excess AtLURE1.2, on ice 30 min, washed five times; SDS-PAGE, Coomassie blue
Source text: as §1, §2

AtPRK6^LRR ΔN239I240 = assay: In vitro pull-down with AtPRK6^LRR mutant with Asn239 and Ile240 deleted; assay type: binding, Arabidopsis thaliana; conditions: wild-type AtLURE1.2
Source text: as §1, §2

[3] = tested on: prk6 pollen tubes transformed with PRK6 ΔN239I240; assay: Gelatin-beads assay, prk6 pollen tubes transformed with ΔN239I240 PRK6; assay type: cell-based, Arabidopsis; conditions: beads with 250 nM wild-type AtLURE1.2; 10–23 pollen tubes per assay, three assays
Procedure: (§3) Attraction activities of mutant AtLURE1.2 peptides were examined for semi-in-vivo pollen tubes growing through cut, pollinated pistils by gelatin-beads assay and wavy assay, [20]. For the gelatin-beads assay, pollen tubes were grown on solid pollen germination medium poured into a mold made with 1-mm thick silicone rubber and cover glasses. After hand-pollination, the topside cover glass was removed and the medium was covered with hydrated silicone oil (KF-96–100CS; Shin-Etsu). Attraction of pollen tubes toward the peptide was evaluated using AtLURE1 peptide containing gelatine beads under an inverted microscope (IX71, Olympus) equipped with a micro-manipulator (Narishige). For the AtLURE1-responsive wavy assay, the purified AtLURE1.2 peptide was added to solid pollen germination medium, which was melted at 70 °C and then cooled to a certain degree. The mixture was mixed by vortexing and poured into the mold. Pollen tubes of each genotype were grown through cut styles, as mentioned above. Each peptide (25 μM in 10 mM Bis-Tris (pH 6.0) and 100 mM NaCl) was diluted to 250 nM by cultivation medium in both assays. To examine reactivity of PRK6 mutants to AtLURE1.2, constructs for PRK6 mutants, D234A, N239A, and ΔN239I240, were generated by site-directed mutagenesis from a wild-type PRK6 vector, pPZP221-pPRK6::PRK6-mRuby2 (ref. [20]). […]

[4] = tested on: prk6 pollen tubes transformed with PRK6 D234A; assay: Gelatin-beads assay, prk6 pollen tubes transformed with D234A PRK6; assay type: cell-based, Arabidopsis; conditions: beads with 250 nM wild-type AtLURE1.2; 10–23 pollen tubes per assay, three assays
Procedure: as §3

MIK1^LRR [5] = assay: ITC, AtLURE1.2 titrated into MIK1^LRR; assay type: binding, Arabidopsis; conditions: 25 °C, 200 mM HEPES pH 7.0, 100 mM NaCl, twenty injections of 0.5 mM AtLURE1.2 into 0.05 mM MIK1LRR
Source text: as §1
Supplementary Figure 6: Binding affinity between MIK1LRR, MIK2LRR and AtLURE1.2 was not detected in ITC assay. […]

B1: AtLURE1.2: mature form of AtLURE1.2 (residues 20–90), defensin-like cysteine-rich peptide expressed in insect cells (protein)
chain: TLINGSSDEERTYSFSPTTSPFDPRSLNQELKIGRIGYCFDCARACMRRGKYIRTCSFERKLCRCSISDIK
modifications: left off: His6, N-terminal, cleaved | SUMO, N-terminal, cleaved
notes: mature form of AtLURE1.2 (residues 20–90), defensin-like cysteine-rich peptide expressed in insect cells
In the case of B1, the “interaction in pull-down assay” value [1] is reported as “none of the other LRR proteins was found to interact”, the “interaction in pull-down assay” value (MIK1^LRR [2]) is reported as “none of the other LRR proteins was found to interact” and the “interaction in pull-down assay” value (AtPRK6^LRR ΔN239I240) is reported as “A similar effect was observed; also recorded: significantly compromised”. For the same molecule, the pollen tube attraction [3] was “significantly lower than those in wild-type and N239A PRK6 pollen tubes; also recorded: significantly reduced”, the pollen tube attraction [4] was “significantly lower than those in wild-type and N239A PRK6 pollen tubes; also recorded: significantly reduced” and the “binding in ITC” value (MIK1^LRR [5]) was “not detected; also recorded: no obvious heat was produced; also recorded: none of the purified AtPRK3^LRR, MIK1^LRR or MIK2^LRR proteins showed detectable interaction”.

— paper PMC5673899, “Structural basis for receptor recognition of pollen tube attraction peptides” (Nature Communications, 2017)
